Reference: US10941182 (Amgen, dated 2021)
Starred links: 1 amine or outer side, 2 acyl side, 3 side chain; linkers in the order of their positions; H or OH if unused. Non-standard residues stand in square brackets, D forms with d. *: point of attachment. dBip = N[C@H](Cc1ccc(-c2ccccc2)cc1)C(=O)O; Oic = O=C(O)[C@@H]1C[C@@H]2CCCC[C@@H]2N1; Phe(4-Cl) = N[C@@H](Cc1ccc(Cl)cc1)C(=O)O; Phe(4-I) = N[C@@H](Cc1ccc(I)cc1)C(=O)O; γGlu = O=C(O)[C@H](CCC(=O)[*:2])N[*:1]; NMeR = CN[C@@H](CCCNC(=N)N)C(=O)O; Tridecanoyl = CCCCCCCCCCCCC(=O)*; hArg = N=C(N)NCCCC[C@H](N)C(=O)O; Cha = N[C@@H](CC1CCCCC1)C(=O)O; NMeL = CN[C@@H](CC(C)C)C(=O)O; Nle = CCCC[C@H](N)C(=O)O; AEEA = NCCOCCOCC(=O)O

T1: human APJ receptor (human, UniProt P35414 1-380)
T1 sequence (looked up): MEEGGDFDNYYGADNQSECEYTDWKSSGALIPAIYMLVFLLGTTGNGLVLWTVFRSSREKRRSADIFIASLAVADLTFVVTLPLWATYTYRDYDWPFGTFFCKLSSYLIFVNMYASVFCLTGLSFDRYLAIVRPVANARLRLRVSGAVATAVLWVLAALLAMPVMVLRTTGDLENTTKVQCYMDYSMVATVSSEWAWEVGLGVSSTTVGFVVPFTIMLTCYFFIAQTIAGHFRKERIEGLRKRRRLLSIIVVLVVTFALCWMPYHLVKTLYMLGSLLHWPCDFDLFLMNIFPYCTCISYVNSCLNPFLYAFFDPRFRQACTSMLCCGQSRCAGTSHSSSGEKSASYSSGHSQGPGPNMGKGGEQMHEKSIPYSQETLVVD

T2: rat APJ receptor (rat, UniProt Q9JHG3 1-377)
T2 sequence (looked up): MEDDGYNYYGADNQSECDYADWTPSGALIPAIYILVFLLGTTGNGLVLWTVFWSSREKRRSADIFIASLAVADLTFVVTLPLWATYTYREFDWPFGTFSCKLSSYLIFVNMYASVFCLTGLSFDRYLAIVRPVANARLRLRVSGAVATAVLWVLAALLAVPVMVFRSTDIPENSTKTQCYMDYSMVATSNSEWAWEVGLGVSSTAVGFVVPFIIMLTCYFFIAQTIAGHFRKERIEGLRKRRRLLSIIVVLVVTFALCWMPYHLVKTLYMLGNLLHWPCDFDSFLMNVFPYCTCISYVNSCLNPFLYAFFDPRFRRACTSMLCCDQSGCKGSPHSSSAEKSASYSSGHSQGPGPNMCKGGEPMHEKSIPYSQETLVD


Key:
human APJ receptor = target: T1, human APJ receptor; assay: cell-based or functional assay
rat APJ receptor = target: T2, rat APJ receptor; assay: cell-based or functional assay

Binder	EC50 Human APJ Receptor (human APJ receptor)	EC50 Rat APJ Receptor (rat APJ receptor)
Tridecanoyl-[γGlu][AEEA][AEEA][hArg][Nle]Q[hArg]P[dR][NMeL]SHKG[Oic][Phe(4-I)]P[dBip]-OH (SMILES CCCCCCCCCCCCC(=O)N[C@@H](CCC(=O)NCCOCCOCC(=O)NCCOCCOCC(=O)N[C@@H](CCCCNC(=N)N)C(=O)N[C@@H](CCCC)C(=O)N[C@@H](CCC(N)=O)C(=O)N[C@@H](CCCCNC(=N)N)C(=O)N1CCC[C@H]1C(=O)N[C@H](CCCNC(=N)N)C(=O)N(C)[C@@H](CC(C)C)C(=O)N[C@@H](CO)C(=O)N[C@@H](Cc1c[nH]cn1)C(=O)N[C@@H](CCCCN)C(=O)NCC(=O)N1[C@H](C(=O)N[C@@H](Cc2ccc(I)cc2)C(=O)N2CCC[C@H]2C(=O)N[C@H](Cc2ccc(-c3ccccc3)cc2)C(=O)O)C[C@@H]2CCCC[C@@H]21)C(=O)O) [SEQ ID NO: 315]	3.04 nM	4.9 nM
Tridecanoyl-[γGlu][AEEA][AEEA][hArg][Nle]Q[hArg]P[dR][NMeL]SAKG[Oic][Phe(4-I)]P[dBip]-OH (SMILES CCCCCCCCCCCCC(=O)N[C@@H](CCC(=O)NCCOCCOCC(=O)NCCOCCOCC(=O)N[C@@H](CCCCNC(=N)N)C(=O)N[C@@H](CCCC)C(=O)N[C@@H](CCC(N)=O)C(=O)N[C@@H](CCCCNC(=N)N)C(=O)N1CCC[C@H]1C(=O)N[C@H](CCCNC(=N)N)C(=O)N(C)[C@@H](CC(C)C)C(=O)N[C@@H](CO)C(=O)N[C@@H](C)C(=O)N[C@@H](CCCCN)C(=O)NCC(=O)N1[C@H](C(=O)N[C@@H](Cc2ccc(I)cc2)C(=O)N2CCC[C@H]2C(=O)N[C@H](Cc2ccc(-c3ccccc3)cc2)C(=O)O)C[C@@H]2CCCC[C@@H]21)C(=O)O) [SEQ ID NO: 327]	14.4 nM	14.8 nM
Tridecanoyl-[γGlu][AEEA][AEEA][hArg]Q[hArg]P[hArg][Cha]SHKG[Oic][Nle]P[Phe(4-Cl)]-OH (SMILES CCCCCCCCCCCCC(=O)N[C@@H](CCC(=O)NCCOCCOCC(=O)NCCOCCOCC(=O)N[C@@H](CCCCNC(=N)N)C(=O)N[C@@H](CCC(N)=O)C(=O)N[C@@H](CCCCNC(=N)N)C(=O)N1CCC[C@H]1C(=O)N[C@@H](CCCCNC(=N)N)C(=O)N[C@@H](CC1CCCCC1)C(=O)N[C@@H](CO)C(=O)N[C@@H](Cc1c[nH]cn1)C(=O)N[C@@H](CCCCN)C(=O)NCC(=O)N1[C@H](C(=O)N[C@@H](CCCC)C(=O)N2CCC[C@H]2C(=O)N[C@@H](Cc2ccc(Cl)cc2)C(=O)O)C[C@@H]2CCCC[C@@H]21)C(=O)O) [SEQ ID NO: 490]	0.0277 nM	0.102 nM
Tridecanoyl-[γGlu][AEEA][AEEA][hArg]Q[hArg]P[NMeR][Cha]SHKG[Oic][Nle]P[Phe(4-Cl)]-OH (SMILES CCCCCCCCCCCCC(=O)N[C@@H](CCC(=O)NCCOCCOCC(=O)NCCOCCOCC(=O)N[C@@H](CCCCNC(=N)N)C(=O)N[C@@H](CCC(N)=O)C(=O)N[C@@H](CCCCNC(=N)N)C(=O)N1CCC[C@H]1C(=O)N(C)[C@@H](CCCNC(=N)N)C(=O)N[C@@H](CC1CCCCC1)C(=O)N[C@@H](CO)C(=O)N[C@@H](Cc1c[nH]cn1)C(=O)N[C@@H](CCCCN)C(=O)NCC(=O)N1[C@H](C(=O)N[C@@H](CCCC)C(=O)N2CCC[C@H]2C(=O)N[C@@H](Cc2ccc(Cl)cc2)C(=O)O)C[C@@H]2CCCC[C@@H]21)C(=O)O) [SEQ ID NO: 310]	0.226 nM	0.363 nM
Tridecanoyl-[γGlu][AEEA][AEEA][hArg][dR]Q[hArg]P[Nle][NMeL]AHKG[Oic][Phe(4-I)]P[dBip]-OH (SMILES CCCCCCCCCCCCC(=O)N[C@@H](CCC(=O)NCCOCCOCC(=O)NCCOCCOCC(=O)N[C@@H](CCCCNC(=N)N)C(=O)N[C@H](CCCNC(=N)N)C(=O)N[C@@H](CCC(N)=O)C(=O)N[C@@H](CCCCNC(=N)N)C(=O)N1CCC[C@H]1C(=O)N[C@@H](CCCC)C(=O)N(C)[C@@H](CC(C)C)C(=O)N[C@@H](C)C(=O)N[C@@H](Cc1c[nH]cn1)C(=O)N[C@@H](CCCCN)C(=O)NCC(=O)N1[C@H](C(=O)N[C@@H](Cc2ccc(I)cc2)C(=O)N2CCC[C@H]2C(=O)N[C@H](Cc2ccc(-c3ccccc3)cc2)C(=O)O)C[C@@H]2CCCC[C@@H]21)C(=O)O) [SEQ ID NO: 317]	56.8 nM	63.9 nM
Tridecanoyl-[γGlu][AEEA][AEEA][hArg][dR]Q[hArg]P[Nle][NMeL]AAKG[Oic][Phe(4-I)]P[dBip]-OH (SMILES CCCCCCCCCCCCC(=O)N[C@@H](CCC(=O)NCCOCCOCC(=O)NCCOCCOCC(=O)N[C@@H](CCCCNC(=N)N)C(=O)N[C@H](CCCNC(=N)N)C(=O)N[C@@H](CCC(N)=O)C(=O)N[C@@H](CCCCNC(=N)N)C(=O)N1CCC[C@H]1C(=O)N[C@@H](CCCC)C(=O)N(C)[C@@H](CC(C)C)C(=O)N[C@@H](C)C(=O)N[C@@H](C)C(=O)N[C@@H](CCCCN)C(=O)NCC(=O)N1[C@H](C(=O)N[C@@H](Cc2ccc(I)cc2)C(=O)N2CCC[C@H]2C(=O)N[C@H](Cc2ccc(-c3ccccc3)cc2)C(=O)O)C[C@@H]2CCCC[C@@H]21)C(=O)O) [SEQ ID NO: 329]	37.5 nM	36.1 nM
Tridecanoyl-[γGlu][AEEA][AEEA][hArg][dR]Q[hArg]P[Nle][NMeL]SHKG[Oic][Phe(4-I)]P[dBip]-OH (SMILES CCCCCCCCCCCCC(=O)N[C@@H](CCC(=O)NCCOCCOCC(=O)NCCOCCOCC(=O)N[C@@H](CCCCNC(=N)N)C(=O)N[C@H](CCCNC(=N)N)C(=O)N[C@@H](CCC(N)=O)C(=O)N[C@@H](CCCCNC(=N)N)C(=O)N1CCC[C@H]1C(=O)N[C@@H](CCCC)C(=O)N(C)[C@@H](CC(C)C)C(=O)N[C@@H](CO)C(=O)N[C@@H](Cc1c[nH]cn1)C(=O)N[C@@H](CCCCN)C(=O)NCC(=O)N1[C@H](C(=O)N[C@@H](Cc2ccc(I)cc2)C(=O)N2CCC[C@H]2C(=O)N[C@H](Cc2ccc(-c3ccccc3)cc2)C(=O)O)C[C@@H]2CCCC[C@@H]21)C(=O)O) [SEQ ID NO: 311]	34.7 nM	37.4 nM
Tridecanoyl-[γGlu][AEEA][AEEA][hArg][dR]Q[hArg]P[Nle][NMeL]SAKG[Oic][Phe(4-I)]P[dBip]-OH (SMILES CCCCCCCCCCCCC(=O)N[C@@H](CCC(=O)NCCOCCOCC(=O)NCCOCCOCC(=O)N[C@@H](CCCCNC(=N)N)C(=O)N[C@H](CCCNC(=N)N)C(=O)N[C@@H](CCC(N)=O)C(=O)N[C@@H](CCCCNC(=N)N)C(=O)N1CCC[C@H]1C(=O)N[C@@H](CCCC)C(=O)N(C)[C@@H](CC(C)C)C(=O)N[C@@H](CO)C(=O)N[C@@H](C)C(=O)N[C@@H](CCCCN)C(=O)NCC(=O)N1[C@H](C(=O)N[C@@H](Cc2ccc(I)cc2)C(=O)N2CCC[C@H]2C(=O)N[C@H](Cc2ccc(-c3ccccc3)cc2)C(=O)O)C[C@@H]2CCCC[C@@H]21)C(=O)O) [SEQ ID NO: 323]	2.51 nM	5.29 nM
Tridecanoyl-[γGlu][AEEA][AEEA][hArg][dR]Q[hArg]PK[NMeL]AA[Nle]G[Oic][Phe(4-I)]P[dBip]-OH (SMILES CCCCCCCCCCCCC(=O)N[C@@H](CCC(=O)NCCOCCOCC(=O)NCCOCCOCC(=O)N[C@@H](CCCCNC(=N)N)C(=O)N[C@H](CCCNC(=N)N)C(=O)N[C@@H](CCC(N)=O)C(=O)N[C@@H](CCCCNC(=N)N)C(=O)N1CCC[C@H]1C(=O)N[C@@H](CCCCN)C(=O)N(C)[C@@H](CC(C)C)C(=O)N[C@@H](C)C(=O)N[C@@H](C)C(=O)N[C@@H](CCCC)C(=O)NCC(=O)N1[C@H](C(=O)N[C@@H](Cc2ccc(I)cc2)C(=O)N2CCC[C@H]2C(=O)N[C@H](Cc2ccc(-c3ccccc3)cc2)C(=O)O)C[C@@H]2CCCC[C@@H]21)C(=O)O) [SEQ ID NO: 331]	24.7 nM	18.1 nM
Tridecanoyl-[γGlu][AEEA][AEEA][hArg][dR]Q[hArg]PK[NMeL]AH[Nle]G[Oic][Phe(4-I)]P[dBip]-OH (SMILES CCCCCCCCCCCCC(=O)N[C@@H](CCC(=O)NCCOCCOCC(=O)NCCOCCOCC(=O)N[C@@H](CCCCNC(=N)N)C(=O)N[C@H](CCCNC(=N)N)C(=O)N[C@@H](CCC(N)=O)C(=O)N[C@@H](CCCCNC(=N)N)C(=O)N1CCC[C@H]1C(=O)N[C@@H](CCCCN)C(=O)N(C)[C@@H](CC(C)C)C(=O)N[C@@H](C)C(=O)N[C@@H](Cc1c[nH]cn1)C(=O)N[C@@H](CCCC)C(=O)NCC(=O)N1[C@H](C(=O)N[C@@H](Cc2ccc(I)cc2)C(=O)N2CCC[C@H]2C(=O)N[C@H](Cc2ccc(-c3ccccc3)cc2)C(=O)O)C[C@@H]2CCCC[C@@H]21)C(=O)O) [SEQ ID NO: 319]	73.2 nM	63.1 nM
